Test [1] concerns the target T1, human SIRPα variant 2 (human, UniProt P78324 31-504).
T1 construct: full length ORF on transfected CHO-K1 cells; also called hSIRPαV2; SIRPαV2
The test is described as follows: CELISA, CHO-K1 transfectants; average of two experiments. The procedure:
(§1) The binding specificity of antibody hSIRPα.50A to hSIRPα was compared antibody KWAR23 (Canadian Patent 2939293 A1), in a CELISA format. CHO-K1 cells were transiently transfected with hSIRPαV1, hSIRPαV2, hSIRPβ1, and hSIRPγ (GenBank accession: NM_018556.3) (SEQ ID NO: 39) cDNAs. Subsequently, hSIRPα binding was assessed by CELISA using CHO-K1.hSIRPαV1, CHO-K1.hSIRPαV2, CHO-K1.hSIRPβ1, and CHO-K1.hSIRPγ cells. Detection of bound antibody was performed with goat-anti-mouse IgG-HRP (Southern Biotech) for mouse antibodies including hSIRPα.50A and control antibodies or, alternatively, with goat-anti-human IgG-HRP conjugate (Jackson Immuno Research) for the KWAR23 antibody. KWAR23 (SEQ ID NO: 130; SEQ ID NO: 131) was expressed as a chimeric human IgG4 kappa antibody in CHO cells. As shown in FIG. 2 and the following Table 9, KWAR23 antibody cross-reacts with all members of the SIRP receptor family tested: it binds to hSIRPαV1, hSIRPαV2, hSIRPβ1, and hSIRPγ.
Target sequence in this assay (P78324 other isoform, or with tags, fused parts or gaps mutant limits assumed): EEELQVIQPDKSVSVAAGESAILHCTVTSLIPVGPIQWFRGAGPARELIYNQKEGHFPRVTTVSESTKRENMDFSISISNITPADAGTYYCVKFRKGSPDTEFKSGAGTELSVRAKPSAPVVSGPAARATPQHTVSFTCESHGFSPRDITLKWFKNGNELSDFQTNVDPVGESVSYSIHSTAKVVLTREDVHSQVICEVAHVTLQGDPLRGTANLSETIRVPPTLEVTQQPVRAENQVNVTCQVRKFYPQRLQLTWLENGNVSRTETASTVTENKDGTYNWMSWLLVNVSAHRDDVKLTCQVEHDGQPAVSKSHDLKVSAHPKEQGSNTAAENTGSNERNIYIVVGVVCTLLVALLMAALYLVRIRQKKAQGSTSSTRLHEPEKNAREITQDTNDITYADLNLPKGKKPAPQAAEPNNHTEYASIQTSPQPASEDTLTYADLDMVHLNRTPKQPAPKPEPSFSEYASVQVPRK

Test [2] addresses T2, human SIRPα variant 1 (human, UniProt P78324 31-504).
T2 construct: full length ORF on transfected CHO-K1 or HEK293 cells; entry includes the signal peptide; also called hSIRPαV1; SIRPαV1
The test is described as above. As to the method:
as §1

The target of another test is T3, human SIRPγ (human, UniProt Q9P1W8 29-387).
T3 construct: on transfected CHO-K1 cells; also called hSIRPγ
T3 sequence (Q9P1W8 29-387 limits assumed): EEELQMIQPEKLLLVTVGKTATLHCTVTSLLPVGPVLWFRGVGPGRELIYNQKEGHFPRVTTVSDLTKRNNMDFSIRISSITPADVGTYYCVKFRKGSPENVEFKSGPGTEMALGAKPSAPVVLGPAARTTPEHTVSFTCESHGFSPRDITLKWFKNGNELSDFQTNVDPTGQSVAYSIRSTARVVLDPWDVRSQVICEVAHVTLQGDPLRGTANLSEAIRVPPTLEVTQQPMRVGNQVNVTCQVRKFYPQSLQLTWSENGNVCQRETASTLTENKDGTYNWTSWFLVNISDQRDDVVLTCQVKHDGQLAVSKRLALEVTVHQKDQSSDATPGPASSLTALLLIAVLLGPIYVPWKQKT
Described as above. The procedure:
as §1

Test [3] concerns the target T1, human SIRPα variant 2. Briefly: CELISA, CHO-K1 transfectants, domain exchange study. An excerpt: (§2) Based on the fold of SIRPα/β1/γ, the extracellular region can be subdivided into three separate domains: the Ig-like (immunoglobulin-like) V-type (IgV), Ig-like C1-type (IgC1), and Ig-like C2-type (IgC2) domain. The IgV domain is also known as the ligand-binding N-terminal domain of SIRPα and SIRPγ (which binds to CD47). The human SIRPβ1/γ mutants were designed based on the full length hSIRPβ1 sequence (SEQ ID NO: 38) and each individual Ig-like domain was substituted for the equivalent domain of human SIRPγ (SEQ ID NO: 40). […] Binding of hSIRPα.40A to the exchange mutants was tested using CELISA. To this end, CHO-K1 cells were transiently transfected, using Lipofectamine 2000, with the pCI-neo vectors encoding hSIRPαV1, hSIRPαV2, hSIRPβ1, hSIRP-VγC1βC2β, hSIRP-VβC1γC2β, and hSIRP-VβC1βC2γ, respectively. The transfected cells were cultured at 37° C., 5% CO₂ and 95% humidity in medium (DMEM-F12 (Gibco) with 5% New Born Calf serum (Biowest) and Pen/Strep (Gibco)) until confluent. Subsequently, cells were trypsinized and seeded in 96-well flat-bottom tissue culture plates and cultured at 37° C., 5% CO₂ and 95% humidity in culture medium until confluent. Then, culture medium was removed and cells were incubated for 1 hour at 37° C., 5% CO₂ and 95% humidity with hSIRPα.40A, hSIRPα.50A, and anti-hSIRPα clone SE5A5 antibodies. Next, cells were washed with PBS-T and incubated for 1 hour at 37° C., 5% CO₂ and 95% humidity with goat-anti-mouse IgG-HRP conjugate (Southern Biotech). After that, cells were washed three times with PBS-T and anti-hSIRPα immunoreactivity was visualized with TMB Stabilized Chromogen (Invitrogen). Reactions were stopped with 0.5 M H₂SO₄ and absorbances were read at 450 and 610 nm.
Target sequence in this assay (P78324 other isoform, or with tags, fused parts or gaps mutant limits assumed): as the sequence (P78324 other isoform, or with tags, fused parts or gaps mutant limits assumed) above

In test [4] the target is T2, human SIRPα variant 1. Described as above.
Source text: as §2
Target sequence in this assay (P78324 31-504 limits assumed, change not shown): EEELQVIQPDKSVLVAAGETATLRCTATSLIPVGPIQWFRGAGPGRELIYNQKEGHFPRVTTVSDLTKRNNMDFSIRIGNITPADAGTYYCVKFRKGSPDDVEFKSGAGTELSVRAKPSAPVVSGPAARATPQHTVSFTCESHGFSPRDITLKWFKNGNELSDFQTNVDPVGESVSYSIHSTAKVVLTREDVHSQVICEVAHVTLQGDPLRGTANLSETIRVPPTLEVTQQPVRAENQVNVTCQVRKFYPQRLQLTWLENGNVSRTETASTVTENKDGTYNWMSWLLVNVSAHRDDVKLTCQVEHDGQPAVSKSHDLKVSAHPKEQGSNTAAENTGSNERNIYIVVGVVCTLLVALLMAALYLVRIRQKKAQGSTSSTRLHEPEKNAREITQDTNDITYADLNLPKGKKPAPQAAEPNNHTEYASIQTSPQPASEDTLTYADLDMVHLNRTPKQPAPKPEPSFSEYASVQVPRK

Test [5] addresses T2, human SIRPα variant 1. Briefly: flow cytometry, blockade of DyLight488-hCD47/Fc binding to U-937 cells. The method, boiled down: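 THP-1 or U-937 monocyte cells were placed in 96-well round-bottom plates and incubated at 4 °C for 45 minutes in PBS/1% BSA containing FcR Blocking Reagent and a dilution series of anti-SIRPα antibody. After a further wash, cells were resuspended with 0.1 μg/mL DAPI, read by flow cytometry and analyzed in FlowJo. IC50 is defined as the antibody concentration that gives half-maximal inhibition of CD47/Fc binding.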
Target sequence in this assay (P78324 31-504 limits assumed, change not shown): as above
Background: Flow cytometry measures light scatter and fluorescence of single cells or particles in a stream.

A further test has as its target T4, hSIRPαV6 (NA18507_V6) (human, UniProt P78324 31-504).
T4 construct: also called human SIRPαV6
Briefly: CELISA, CHO-K1 transfectants. As to the method:
(§3) The binding specificity of antibodies hSIRPα.40A and hSIRPα.50A to hSIRPα were compared in a CELISA format. In short, CHO-K1 cells were transiently transfected with hSIRPαV1, hSIRPαV2, hSIRPβ1, hSIRPβL, and hSIRPγ cDNAs. Subsequently, hSIRPα binding was assessed by CELISA using CHO-K1.hSIRPαV1, CHO-K1.hSIRPαV2, CHO-K1.hSIRPβ1, CHO-K1.hSIRPβL, and CHO-K1.hSIRPγ cells. Detection of bound antibody was done with goat-anti-mouse IgG-HRP (Southern Biotech).
(§4) In addition, the specificity of hSIRPα.40A for all known of hSIRPα alleles (allelic variants as described by Takenaka et al., Nat Immunol. 8:1313-1323 (2007) was further investigated by CELISA using the same strategy as above. To this end, hSIRPα.40A binding was assessed using CHO-K1 cells that were transiently transfected with cDNAs encoding full length hSIRPαV1, hSIRPαV2, hSIRPαV3 (NA07056_V3) (SEQ ID NO: 44), hSIRPαV4 (NA11832_V4) (SEQ ID NO: 46), hSIRPαV5 (NA18502_V5) (SEQ ID NO: 48), hSIRPαV6 (NA18507_V6) (SEQ ID NO: 50), hSIRPαV8 (NA18570_V8) (SEQ ID NO: 52), and hSIRPαV9 (NA18943_V9) (SEQ ID NO: 54).

Test [6] deals with T1, human SIRPα variant 2. The test is described as follows: CELISA, CHO-K1 transfectants. The procedure:
as §3, §4

B1: hSIRPα.50A (antibody, V domains shown)
VH: QVQLQQSGPELVKPGASVRISCKASGFTFTNYYIHWVKQRPGQGLEWIGWIYPGNVNTKYNEKFKAKATLTADKSSTTAYMQLSSLASEDSAVYFCARPTIIATDFDVWGAGTTVTVSS
VL: DIVMTQSHKFMSTSVGDRVNITCKASQGVGTAVGWYQQKPGQSPRLLIYWASTRHTGVPDRFTGSGSGTDFSLAISNVQSEDLADYFCQQYSTYPFTFGGGTNLEIK
notes: light chain constant domain not tied; also called mouse hSIRPα.50A; hSIRPα.50A.mIgG1
As to B1, the EC50 (in general, the concentration at which the effect is half-maximal) with human SIRPα variant 2 [1] came out at 1.3 nM; in the test with human SIRPα variant 1 [2], 1.36 nM; in the test with human SIRPγ, 1.25 nM; with human SIRPα variant 2 [3] it was 0.821 nM; with human SIRPα variant 1 [4] it was 0.968 nM; in the test with hSIRPαV6 (NA18507_V6), 2.22 nM. In the test with human SIRPα variant 2 [6], this molecule showed an EC50 of 1.07 nM. For the same molecule, in the test with human SIRPα variant 1 [5], the IC50 – broadly, the midpoint of a concentration-inhibition curve – stood at 19.5 nM.

B2: hSIRPα.40A (antibody, mouse IgG1, kappa, V domains shown)
VH: EVQFQQSGTVLARPGTSVKMSCKASGSTFTSYWMHWVKQGPGQGLQWIGAIYPVNNDTTYNQKFKGKAELTVVTSTSTAYMEVSSLTNEDSAVYYCTRSFYYSLDAAWFVYWGQGTLVTVSA
VL: DIQMTQSPSSLSASLGERVSLTCRASQDIGSRLNWLQQEPDGTIKRLIYATSSLDSGVPKRFSGSRSGSDYSLTISGLESEDFVDYYCLQYASSPFTFGGGTKLEINR
notes: mouse antibody, full chains without signal peptide; also called mouse hSIRPα.40A
On to B2, for which the EC50 was determined as 0.101 nM in the test with human SIRPα variant 2 [3], 0.133 nM in the test with human SIRPα variant 1 [4], 0.136 nM in the test with hSIRPαV6 (NA18507_V6) and 0.089 nM with human SIRPα variant 2 [6]. The molecule further yielded an IC50 with human SIRPα variant 1 [5] of 1.34 nM.

B3: KWAR23 (antibody, V domains shown)
VH: EVQLQQSGAELVKPGASVKLSCTASGFNIKDYYIHWVQQRTEQGLEWIGRIDPEDGETKYAPKFQDKATITADTSSNTAYLHLSSLTSEDTAVYYCARWGAYWGQGTLVTVSS
VL: QIVLTQSPAIMSASPGEKVTLTCSASSSVSSSYLYWYQQKPGSSPKLWIYSTSNLASGVPARFSGSGSGTSYSLTISSMEAEDAASYFCHQWSSYPRTFGAGTKLELK
For the molecule B3, the EC50 is 0.051 nM with human SIRPα variant 2 [1], 0.081 nM with human SIRPα variant 1 [2] and 0.04 nM with human SIRPγ.
